According to the Human Domainome abundance scans (Beltran et al. 2025):
± gives the uncertainty stated by the source.

B1: Cytoplasmic polyadenylation element-binding protein 2, residues 513 to 575; numbered along this chain, Q7Z5Q1 (parent)
chain: KRVEVKPYVLDDQMCDECQGARCGGKFAPFFCANVTCLQYYCEFCWANIHSRAGREFHKPLVK
B2: POU domain, class 3, transcription factor 2, residues 356 to 411; numbered along this chain, P20265 (parent)
chain: KKRTSIEVSVKGALESHFLKCPKPSAQEITSLADSLQLEKEVVRVWFCNRRQKEKR

Variants of: B1
Test: abundance fitness (aPCA) (normalised: wild type 0, dead -1); higher = more abundant; growth selection in yeast, the domain comes from the species named
Settings: Homo sapiens

Variant | abundance fitness
R55P | -0.463 ± 0.066
R55Q | -0.058 ± 0.073
R55S | -0.041 ± 0.037
R55T | -0.165 ± 0.055
R55V | -0.1 ± 0.046
R55Y | 0.211 ± 0.057
E56A | -0.357 ± 0.061
E56C | -0.195 ± 0.056
E56D | -0.035 ± 0.081
E56F | -0.235 ± 0.057
E56H | -0.158 ± 0.068
E56K | 0.035 ± 0.066
E56L | -0.253 ± 0.043
E56M | -0.154 ± 0.052
E56N | -0.111 ± 0.088
E56P | -0.31 ± 0.054
E56Q | -0.214 ± 0.08
E56R | -0.01 ± 0.037
E56S | -0.128 ± 0.044
E56V | -0.373 ± 0.05
E56W | -0.573 ± 0.057
E56Y | -0.271 ± 0.091
F57A | 0.125 ± 0.049
F57C | 0.098 ± 0.064
F57D | 0.054 ± 0.073
F57E | 0.117 ± 0.047

Variant | abundance fitness
F57G | 0.166 ± 0.035
F57H | 0.027 ± 0.044
F57I | -0.109 ± 0.11
F57L | 0.091 ± 0.046
F57M | 0.144 ± 0.066
F57N | 0.134 ± 0.076
F57P | -0.029 ± 0.052
F57R | 0.097 ± 0.038
F57S | 0.129 ± 0.049
F57T | 0.121 ± 0.061
F57V | 0.065 ± 0.048
F57W | 0.026 ± 0.049
F57Y | -0.032 ± 0.077
H58A | -0.743 ± 0.066
H58C | -0.227 ± 0.062
H58D | -0.704 ± 0.086
H58E | -0.442 ± 0.069
H58F | -0.934 ± 0.11
H58I | -0.679 ± 0.15
H58K | -0.384 ± 0.062
H58L | -0.707 ± 0.061
H58M | -0.653 ± 0.091
H58P | -0.51 ± 0.1
H58Q | -0.663 ± 0.1
H58R | -0.763 ± 0.049
H58S | -0.523 ± 0.058

Variant | abundance fitness
H58T | -0.611 ± 0.082
H58V | -0.704 ± 0.062
H58W | -1.01 ± 0.08
H58Y | -0.822 ± 0.11
K59A | -0.118 ± 0.053
K59C | -0.199 ± 0.05
K59D | -0.132 ± 0.069
K59E | 0.168 ± 0.055
K59F | -0.541 ± 0.089
K59G | -0.255 ± 0.045
K59H | -0.226 ± 0.072
K59I | -0.3 ± 0.08
K59L | -0.219 ± 0.05
K59N | -0.248 ± 0.075
K59P | -0.247 ± 0.06
K59Q | -0.076 ± 0.079
K59R | 0.024 ± 0.038
K59S | 0.021 ± 0.04
K59T | -0.041 ± 0.059
K59V | -0.2 ± 0.05
K59W | -0.46 ± 0.047
K59Y | -0.351 ± 0.092
P60A | -0.051 ± 0.046
P60C | -0.154 ± 0.075
P60E | -0.412 ± 0.072
P60F | -0.937 ± 0.21

Variant | abundance fitness
P60G | -0.341 ± 0.049
P60H | -0.226 ± 0.13
P60L | -0.517 ± 0.048
P60M | -0.157 ± 0.064
P60N | -0.057 ± 0.12
P60Q | 0.051 ± 0.046
P60R | -0.052 ± 0.041
P60T | -0.558 ± 0.1
P60V | -0.331 ± 0.049
P60W | -0.817 ± 0.069
L61A | 0.092 ± 0.044
L61C | 0.091 ± 0.059
L61D | 0.04 ± 0.083
L61E | 0.146 ± 0.051
L61F | -0.11 ± 0.079
L61G | 0.076 ± 0.042
L61H | -0.048 ± 0.11
L61I | 0.071 ± 0.072
L61K | 0.065 ± 0.064
L61M | 0.012 ± 0.056
L61N | 0.033 ± 0.077
L61Q | 0.116 ± 0.057
L61R | -0.014 ± 0.042
L61S | 0.12 ± 0.04
L61T | 0.076 ± 0.052
L61V | 0.091 ± 0.041

Variant | abundance fitness
L61W | -0.137 ± 0.045
L61Y | -0.197 ± 0.081
V62A | -0.193 ± 0.47
V62D | -0.164 ± 0.22
V62I | -0.103 ± 0.1
V62M | 0.081 ± 0.22
V62R | 0.105 ± 0.42
V62S | -0.081 ± 0.34
K63A | 0.125 ± 0.16
K63D | -0.641 ± 0.21
K63E | 0.014 ± 0.082
K63G | 0.1 ± 0.1
K63H | -0.014 ± 0.11
K63M | -0.111 ± 0.14
K63N | -0.091 ± 0.11
K63P | 0.367 ± 0.3
K63Q | -0.044 ± 0.11
K63R | -0.105 ± 0.092
K63S | -0.034 ± 0.13
K63T | -0.079 ± 0.085
K63V | -0.112 ± 0.062
K63W | -0.415 ± 0.09
K63Y | -0.408 ± 0.14

Variants of: B2
Test: as above
Settings: Homo sapiens

Variant | abundance fitness
A33R | -0.936 ± 0.1
R51S | -0.323 ± 0.1
L14G | -0.882 ± 0.12
G12F | -0.085 ± 0.17
C21V | -0.421 ± 0.092
K40L | -0.147 ± 0.083
E28F | -0.511 ± 0.12
Q27F | -0.327 ± 0.12
K40V | 0.007 ± 0.11
W46Q | -0.78 ± 0.16
E15H | -0.805 ± 0.36
S25Y | -0.798 ± 0.27
T30R | -0.151 ± 0.069
L32F | -0.341 ± 0.16
L38N | -0.964 ± 0.23
V10P | -0.554 ± 0.17
I6K | 0.103 ± 0.15
Q52W | -0.241 ± 0.11
E7Y | -0.358 ± 0.072
S9H | 0.057 ± 0.24

Variant | abundance fitness
Q37I | -0.63 ± 0.13
W46A | -0.932 ± 0.13
K23L | -0.203 ± 0.069
E41K | -0.446 ± 0.17
L14I | -0.706 ± 0.27
K11D | 0.099 ± 0.13
E7A | -0.039 ± 0.071
I29R | -0.93 ± 0.099
K23G | -0.426 ± 0.095
V8W | -0.131 ± 0.1
Q27N | 0.028 ± 0.22
L14K | -0.933 ± 0.2
K1V | -0.072 ± 0.28
K20T | -0.16 ± 0.11
E7N | 0.138 ± 0.079
S16H | -0.21 ± 0.16
P22F | -0.996 ± 0.37
C21F | -0.351 ± 0.11
S35E | 0.03 ± 0.1
C21Y | -0.506 ± 0.13
